Source: IntAct's records for PubMed 15890343

Target: otx2_mouse Otx2 (UniProt P80206)
Sequence (P80206 whole entry): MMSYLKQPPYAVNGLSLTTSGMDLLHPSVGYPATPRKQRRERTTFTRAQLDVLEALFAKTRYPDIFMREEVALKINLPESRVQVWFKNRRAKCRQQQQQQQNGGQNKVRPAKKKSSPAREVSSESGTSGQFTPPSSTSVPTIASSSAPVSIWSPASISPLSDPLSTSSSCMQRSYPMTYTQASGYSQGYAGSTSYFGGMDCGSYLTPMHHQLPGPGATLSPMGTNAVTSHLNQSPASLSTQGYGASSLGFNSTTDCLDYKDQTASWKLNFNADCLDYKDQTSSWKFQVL

Chain of Diencephalon/mesencephalon homeobox protein 1 (Mus musculus), Q91ZK4 R122W (Q91ZK4 whole entry R122W): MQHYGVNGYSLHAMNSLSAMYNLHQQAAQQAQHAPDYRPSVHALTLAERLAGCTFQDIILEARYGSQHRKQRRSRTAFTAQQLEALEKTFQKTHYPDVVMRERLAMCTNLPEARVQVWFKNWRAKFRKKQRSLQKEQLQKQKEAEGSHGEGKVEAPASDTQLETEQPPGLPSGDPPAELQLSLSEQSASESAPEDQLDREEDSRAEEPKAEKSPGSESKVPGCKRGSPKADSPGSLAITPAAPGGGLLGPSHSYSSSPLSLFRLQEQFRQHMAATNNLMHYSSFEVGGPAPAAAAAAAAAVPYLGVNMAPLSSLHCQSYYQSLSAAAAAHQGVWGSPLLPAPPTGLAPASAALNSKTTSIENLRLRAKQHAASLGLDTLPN

“Diencephalon/mesencephalon homeobox protein 1 (Mus musculus), Q91ZK4 R122W” was tested, and the “effect of a mutation on the interaction” value was “disrupting interaction”.
